# Experimental data published in patent US20110293613A1 (Hoffmann-La Roche, published 2011).
# B1: human anti-IGF-1R antibody <IGF-1R> HUMAB Clone 18 (DSM ACC 2587) (antibody, V domains shown)
# VH: QVELVESGGGVVQPGRSQRLSCAASGFTFSSYGMHWVRQAPGKGLEWVAIIWFDGSSTYYADSVRGRFTISRDNSKNTLYLQMNSLRAEDTAVYFCARELGRRYFDLWGRGTLVSVSS
# VL: EIVLTQSPATLSLSPGERATLSCRASQSVSSYLAWYQQKPGQAPRLLIYDASKRATGIPARFSGSGSGTDFTLTISSLEPEDFAVYYCQQRSKWPPWTFGQGTKVESK
# Assays:
# [1] = biological target: T1, human Insulin-like growth factor I receptor (IGF-1R) on tumor cells (human, UniProt P08069 31-1367); experiment: competitive FACS binding on A549 cells, competitor labeled <IGF-1R> HUMAB Clone 18, Exp. #1
# T1 construct: Endogenously expressed on the human tumor cell lines; also called IGF-IR; CD 221 antigen
# [2] = biological target: T1, human Insulin-like growth factor I …; experiment: competitive FACS binding on A549 cells, competitor labeled <IGF-1R> HUMAB Clone 18, Exp. #2
# [3] = biological target: T1, human Insulin-like growth factor I …; experiment: competitive FACS binding on TC-71 cells, competitor labeled <IGF-1R> HUMAB Clone 18, Exp. #1
# [4] = biological target: T1, human Insulin-like growth factor I …; experiment: competitive FACS binding on TC-71 cells, competitor labeled <IGF-1R> HUMAB Clone 18, Exp. #2
# T1 sequence (P08069 31-1367 limits assumed): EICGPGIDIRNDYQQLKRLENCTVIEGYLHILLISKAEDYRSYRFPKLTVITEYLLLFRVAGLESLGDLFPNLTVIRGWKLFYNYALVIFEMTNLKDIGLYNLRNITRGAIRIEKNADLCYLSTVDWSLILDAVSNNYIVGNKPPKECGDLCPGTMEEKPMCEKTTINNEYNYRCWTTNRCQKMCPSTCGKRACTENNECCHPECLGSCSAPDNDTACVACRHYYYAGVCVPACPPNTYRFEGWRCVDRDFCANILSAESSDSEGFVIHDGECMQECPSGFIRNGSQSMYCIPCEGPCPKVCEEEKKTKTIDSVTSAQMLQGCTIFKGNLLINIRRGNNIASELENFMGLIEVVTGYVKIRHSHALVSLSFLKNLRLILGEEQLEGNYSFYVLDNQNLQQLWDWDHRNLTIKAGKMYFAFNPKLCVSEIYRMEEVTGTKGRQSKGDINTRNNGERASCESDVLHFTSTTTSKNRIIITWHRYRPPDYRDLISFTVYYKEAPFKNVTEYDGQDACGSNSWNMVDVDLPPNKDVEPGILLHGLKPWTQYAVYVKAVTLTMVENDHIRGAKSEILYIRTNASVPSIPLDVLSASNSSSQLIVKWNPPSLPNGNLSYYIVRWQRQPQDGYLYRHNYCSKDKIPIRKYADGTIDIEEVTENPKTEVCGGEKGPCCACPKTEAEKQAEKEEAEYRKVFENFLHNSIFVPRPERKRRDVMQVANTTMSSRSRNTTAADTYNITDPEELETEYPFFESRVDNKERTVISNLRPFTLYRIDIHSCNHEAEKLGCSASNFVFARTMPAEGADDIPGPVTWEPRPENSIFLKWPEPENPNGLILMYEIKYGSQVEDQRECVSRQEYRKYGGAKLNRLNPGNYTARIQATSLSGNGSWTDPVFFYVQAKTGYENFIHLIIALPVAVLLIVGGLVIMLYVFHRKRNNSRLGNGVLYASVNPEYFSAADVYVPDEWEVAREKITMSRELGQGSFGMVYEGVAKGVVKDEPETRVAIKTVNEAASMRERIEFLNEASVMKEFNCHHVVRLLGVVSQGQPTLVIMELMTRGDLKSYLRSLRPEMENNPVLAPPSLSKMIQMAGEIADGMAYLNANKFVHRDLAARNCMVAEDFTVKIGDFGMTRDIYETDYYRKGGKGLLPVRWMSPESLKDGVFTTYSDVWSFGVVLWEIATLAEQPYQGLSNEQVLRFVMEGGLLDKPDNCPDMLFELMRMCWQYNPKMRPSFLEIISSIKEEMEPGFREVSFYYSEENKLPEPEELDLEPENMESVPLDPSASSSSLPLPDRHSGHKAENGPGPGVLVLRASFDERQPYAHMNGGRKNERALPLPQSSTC
binder,measurement,setting,value
B1,IC50,[1],1.6 nM
same,IC50,[2],1.5 nM
same,IC50,[3],1.4 nM
same,IC50,[4],1.5 nM
